First the molecules themselves.
B1: 6 (protein)
chain: MAEILSPEESIYYSKLSNDILAEGIKKNPTRFRGFAALPTPDPIQAAMELERCIKLGGFVGAIINGHINGHYLDEIQFDPILEAADALDVPLYIHPAVPPKAIIDTYYKMNDTYAQTVMVSGGWGWHIETGVHVLRLISSGVFDRHPNLKIVIGHLGEGLPFFMHRLNNAIGGNLKKSYSTYLKENIYYTISGFNDPDLFQFVLKKVGENNIMFSSDYPFNFPKREVELFNELNISEEVREKISFKNAERILKI
modifications: Treponema brennaborense
B2: 94 (protein, listed as Bacillus thuringiensis)
chain: MANRGDSNMKSLVGVIMGSTSDWETMKYACDILDELNIPYEKKVVSAHRTPDYMFEYAETARERGLKVIIAGAGGAAHLPGMVAAKTNLPVIGVPVQSKALNGLDSLLSIVQMPGGVPVATVAIGKAGSTNAGLLAAQILGSFHDDIHDALELRREAIEKDVREGSELV
B3: 86 (protein, listed as Sphingopyxis alaskensis)
chain: MALGASVASREASAQMAKAPMRKIATEEAFATPELAKAWLEIARSEPNSSLDIPTGILSIFDNPRPGSNQDRFRRQLLDVDAERIRDMDEAGVDMQLLSVTIPGVQIFEPARAGELAVTTNDHLAAAIARRPTRFAGLACFAPHDPVQATREMERAVNALGLKGFIVNSHTQDLYLDDPRFAPVLEAAQSLDCPIYLHPRAPSNGMAAPFRDYSMGGSIWGFGVEAGTHAVRMILSGVFDRYPRLRIVLGHMGEALPFWMWRLDHMAARRAKDGRMKPLSLAPSEYFKRNFAVTTSGFESPDVLDLVIKVAGIENIMWAIDYPYESSRDAVTFIEGADLTASQRASIFHRNAVRHFRLS
B4: 85 (protein, listed as Maritimibacter alkaliphilus)
chain: MAADRKPGLVSVEEGFMIPEVVAELSRIAGGVPSMKSGPIAGPFMDDLLDIGKGRVARMDADGVAVQILALAAPGVQKFDPDTALALSRLTNDRLAEAIAAHPARFGGLAAAPPQAAREGAKELDRAITTLGLNGLIVNSHTNDLYLDDPSFWPLLEAAEALDVPVYLHPREPAAGIEGGLMAMTGFTVGWAYAVETGTHLLRMIAAGVFDRFPRLRIVLGHLGEMIPFMLDRIDNRYPFEMGVTGAKPLPRKPSDYFRDHVTVATSGMNFNAPMRAAIEVLGADKVMFAADYPMERQDEEVAKFAALDLTPDERKRIGEDNARRVFGL
B5: 91 (protein, listed as Botryotinia fuckeliana)
chain: MASFVCNFGKAALATLLLTPSISAADYTPQETVLNSGRPTFYDASTSIPGKIALEEHVGNDLLNGLYTVPYYPNTNEPQYSDSVYIADVGEKMLDIPSRIANMDAANISISVLTFGGPGIQGVFNATYATYAAGYVNDYLYKNYKNNANYTGRFEFWCSNALQEPSKAATELERCVKELGGVGSFVGGYTNNGGINGTANDIVYLDDPSMEPFLEKVVELDVPIYLHPRMPAPSQLLSVKGYEFLGSSPWGFSSETGAHALRLMVSGTLDKYPTLKIVLGHCGEGLPFFLPRIDQRLRHFKKELFNNTLTMEEYWLRNFYVTTAGVQDAGTLVDTIKRTGEDRVMFSVDYPFEDTVEIAGWFDRLEMNTLTKTKLAYENAKALLKLTCYVDAEKRPRIFNKHHVDDIIKHTHSPCIWTLFH
B6: 77 (protein)
chain: MALIDLHAHAPHPGYYNQHPHWGPFFERHEDGDVKLRVGDWILTLGSPERKALVRAGKGPTVEEYQARWADPKVRLAGMDAAGQNAQVVSVPSHCYMYWAEKEFSVPFATKVNDTFAEYCSAAPDRLMFWAHAALNAPEQAALELRRACTELGAKGLVAGGANFGGLEFDSPELDPVWKVLCDLDLPMFIHGYNQSVTWGKKANDDRYETTAIVGMQYDETRCFWNLVCGGVLDRFPGLKVYITHGGGYVPYQLGRLAQCNGNLDVAHNKKPVLEYLKNNFYFDVELHEVPMRQALIDIIGADRVLYGSNFGGSDAVRHDLTEGLRLSDDDLQKIRWKNACKLLHLDPAKIGEPAKKQAVSA
modifications: Burkholderia xenovorans
B7: 93 (protein, listed as Mucilaginibacter paludis)
chain: MAKYGKHITINKNMRIVTLEEHISFPEMADQIPKAALGSFGRSEAMQRIAPKLADITGERLKSMDANGISMQVLSVDSSGVNLLSPQQGPAFATQYNDLIANRIAGFEKRFTAFAHLPMTAPFAAADELERAVKEHHFCGAMIRGLTGDQFLDHPQFAPIFERAQKLDVPIYLHPGLPPKGVADIYYSGLPNYSGMAEALACYGWGWHSETALHVLRLLFSGIFDQYPKLKLVIGHMGEMLPMMMARSEKAFKPGNGGANVRTLTDTFRSQVYLTTSGFFTQPPLKIALDTFGIDHVMFSVDYPFSTNEMGIEFLNEIDLPDEEVARIAHGNADKLLNLKA
B8: 80 (protein, listed as Cordyceps militaris)
chain: MAAASTPVVVDIHTHMYPPSYIAMLEKRQTIPLVRTFPQADEPRLILLSSELAALDAALADPAAKLPGRPLSTHFASLAQKMHFMDTNGIRVSVISLANPWFDFLAPDEAPGIADAVNAEFSDMCAQHVGRLFFFAALPLSAPVDAVKASIERVKNLKYCRGIILGTSGLGKGLDDPHLLPVFEAVADAKLLVFLHPHYGLPNEVYGPRSEEYGHVLPLALGFPMETTIAVARMYMAGVFDHVRNLQMLLAHSGGTLPFLAGRIESCIVHDGHLVKTGKVPKDRRTIWTVLKEQIYLDAVIYSEVGLQAAIASSGADRLMFGTDHPFFPPIEEDVQGPWDSSRLNAQAVIKAVGEGSSDAAAVMGLNAVRVLSLKAE
B9: 7 (protein, listed as Legionella pneumophila)
chain: MAIVDFETHFITEACIDYLTQRQEVPKLVPELNGAYTMCFTPDVSLFHTSALMEELLSLNEQRLAIMDQAGVTIQVLSLTTINGIDSCPGDENKSTALAREVNDQLYSAIQRHPERFKGFASISPYDVKEGVKELERAISQLGFVGWLTHSNFGEDNYLDDKTYWPLLEAAEGLNIPIYLHPNVPIMREFGKYGFALGGSALGFEFDTALCLMRMILGGVFDAFPKLKIMLGHLGETMPFLMERLDHLYRIPDLKAYRPSIQRIPSEVLRQNVYITTSGRFFVPALRYVLEVMGEDRVLFASDYPMESLLDATRFIQDSDLSNQTKQKIFSINAKNLNLI
B10: 83 (protein, listed as Mycobacterium rhodesiae)
chain: MALIALEEHYAWSPVSAGNVVGSWLETHNVTAYQRLYDRGPLRLEQMDAAGIDFQILSLFDPGVQDDDDTARAVENARRANDDLAETVRAAPDRFGGFATLAPQDPDAAAAELERAVGELGLVGGLINGHTHGRYLDDPAYLGLFECAQRLGVPIYLHPTTPHPAVMDAWFAPYVKDGLHLASWGFAAETGTHALRLIYSGLFDTFPRLQMILGHLGEMLPYAAYRIDRYYGLGGGDDGGRLARLPSEYLRDNFHVTTSGNFNPVAFACALDVMGPDRLMFSVDYPMDDNVTGAEFLRNLEVDDDVRRKVAGENALQLFGDKIPRR
B11: 84 (protein, listed as Mycobacterium rhodesiae)
chain: MASLIALEEHYAWDPASEGNVVATWLRANNGVAYDRLYDRGPLRIEQMDAAGIDFQILSLFDPGVQDEVDAVRAVDLARRANDDLAESVRANPSRFGGFATLATQQPDAAVAEFDRAVTELGLVGGLINGHCQGRYLDDPAYEALFSRAEALGAPIYLHPTTPHPAVMDAWFAPYVGDGLHLASWGFAAETGTHVLRLIYSGLFDKFPRLQMIIGHLGEMLPFAAYRIDRYYGLGGGGTGHTLQHLPSDYLRNNFHVTTSGNFCSPALDCTLDVMGADRVMFSVDYPMDDNQTGADFLASYPMDDTNRRKVASENALRLFGDRIPAALRN
B12: 90 (protein)
chain: MAATIDRVLYLGNATQRRYTSATVSVPRIFGKVALEEHVGTSIWAKYNLTPPANAVVGVLNRPPTLPNTLDTIARLDDINGRLSSMNHSGIGYVIVSLSSPGIQGVHDTALAIKFSTDINDELYLKYANAYPDKFAFFATVPMQDPVAAASELERAVSLLGAKGAAINGYTDIGPPGNSTTRYLDDPINAPFWSKVAALNVPIYLHPRAPPPSQQLVYNYPNNSLSAYPGLVTGGFAYGAETAVHALRLMLSGLFDTHPNIQIILGHAAEGLPFLIHRSDTQLAAEVPGTNGPYKRPLRYYLRNNFYATLSGVRRLSTTQCTLAEMGEERVLFSVDYPFQSNEDAADWFDGVEGMSVETKRKVARGNARRLFNLTVDLDERQIDGDFM
modifications: Pyrenophora tritici-repentis
B13: 82 (protein, listed as Rhodopseudomonas palustris)
chain: MAQNETPVIAIEEHYWDPEMVARFPAGENASPFSTLLTELGDVRLRAMDEAGIDVQVLSHGAPAAQKLPPDVAPELTRRVNDRLAEACARFPNRFAAFAALPTPAPEAAARELERCVRDLGFKGAMIHGLTNGLFIDDKRFWPIFEVAEKLDVPIYLHPSVPHADVTRYYYDDYAREFPTVIRPAWGFTVETATQAIRLILSRALESYPRLQIILGHLGETLPFLLWRINQALARPGQTPLDFRKQFCDHFHVTTSGFFSTPALICTMLELGIDRIMFAVDYPYVVNRDGTDWVQQLQISPDDKRKLVGGNARRLLKL
B14: 78 (protein, listed as Marinobacter adhaerens)
chain: MALIDLHAHAPHPDYYDQHPHWGPAFELQSDGDIKLRVGHWVLSLGAPERKQALREAHARGETLDVQEYMAKWRDPEHRLASMDAAGQNAQVLSVPSHCYMYWAEPEFGVPFAKKVNDSLAEYCSAAPDRLMFWAHAPLNVPKEAAKEIRRACTELGAKGLVAGGSNFGGLEFDSPEMDPVWEALCDLDLPMFVHGYNQSVTWGEEANTDRYETTAIVGMNYDESKCFWYMINGGVFDRFPNLKVYITHGGGFVPYQLGRMAQTNPNLDTYHNKKPFLEYLKNFYFDVELHEVPMRQAMVEVIGADRVLYGSNFGGSDAVRHDLTDDLKLSQEDLDKIRWKNACDLLHLDPNKLGKVRG

The values below come from patent publication US20140289906A1, “Compositions Having Dicamba Decarboxylase Activity and Methods of Use” (priority 2013, published 2014).

One series can be described thus: 14C assay: 14CO2 capture from [14C]-carboxyl-labeled dicamba with IPTG-induced recombinant E. coli cells. The note with it: IPTG-induced recombinant E. coli cells; 14CO2 from [14C]-carboxyl-labeled dicamba.
Consider B1, for which the “Dicamba Decarboxylase Activity” value is on record as “No”.

With B2, the “Dicamba Decarboxylase Activity” value is on record as “No”.

B3: the “Dicamba Decarboxylase Activity” value is “Low”.

With B4, the “Dicamba Decarboxylase Activity” value is reported as “Low”.

As to B5, the “Dicamba Decarboxylase Activity” value is given as “Low”.

Take B6: the “Dicamba Decarboxylase Activity” value was “No”.

With B7, the “Dicamba Decarboxylase Activity” value was “Low”.

Turning to B8, the “Dicamba Decarboxylase Activity” value is on record as “Low”.

B9: the “Dicamba Decarboxylase Activity” value was “No”.

Take B10: the “Dicamba Decarboxylase Activity” value was “Low”.

Take B11: the “Dicamba Decarboxylase Activity” value is on record as “Low”.

For the molecule B12, the “Dicamba Decarboxylase Activity” value is “Low”.

Consider B13, for which the “Dicamba Decarboxylase Activity” value is “Low”.

Consider B14, for which the “Dicamba Decarboxylase Activity” value was “Low”.

Staying with this series, now noted: dicamba decarboxylation activity.
Take B1: the “Enzymatic Detection level” value was “No”.

In the case of B2, the “Enzymatic Detection level” value is on record as “No”.

Regarding B3, the “Enzymatic Detection level” value is given as “Low”.

For B4, the “Enzymatic Detection level” value is “Low”.

B5: the “Enzymatic Detection level” value is listed as “Low”.

For the molecule B6, the “Enzymatic Detection level” value is listed as “No”.

Consider B7, for which the “Enzymatic Detection level” value is recorded as “Low”.

Take B8: the “Enzymatic Detection level” value is listed as “Low”.

Turning to B9, the “Enzymatic Detection level” value is reported as “No”.

With B10, the “Enzymatic Detection level” value is “Low”.

B11: the “Enzymatic Detection level” value is “Low”.

In the case of B12, the “Enzymatic Detection level” value is “Low”.

For B13, the “Enzymatic Detection level” value is “Low”.

As to B14, the “Enzymatic Detection level” value is “Low”.
